Measured values as given in the supplement of paper PMC10567573.

B1: SMG5 (parent)
chain: TRKLSPGKKRCKDIKRLLVNFMYL

Variants of: B1
Experiment: protein stability index of a GFP-peptide fusion (GPS, HEK-293T) (PSI 1-6); higher = more stable
Conditions: c terminus: a fixed tail appended
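Further: lentivirally expressed fusions sorted by FACS into six bins by GFP to DsRed ratio, PSI derived from sequencing read proportions per bin multiplied by bin number.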

Variant	protein stability index
TRKLSPGKKRCWDIKRLLVNFMYL [K12W]	3.15
TRKLSPGKKRCYDIKRLLVNFMYL [K12Y]	2.96
TRKLSPGKKRCKAIKRLLVNFMYL [D13A]	2.75
TRKLSPGKKRCKCIKRLLVNFMYL [D13C]	1.84
TRKLSPGKKRCKIIKRLLVNFMYL [D13I]	3.25
TRKLSPGKKRCKKIKRLLVNFMYL [D13K]	2.07
TRKLSPGKKRCKLIKRLLVNFMYL [D13L]	2.93
TRKLSPGKKRCKMIKRLLVNFMYL [D13M]	2.54
TRKLSPGKKRCKNIKRLLVNFMYL [D13N]	1.5
TRKLSPGKKRCKPIKRLLVNFMYL [D13P]	2.62
TRKLSPGKKRCKQIKRLLVNFMYL [D13Q]	3.52
TRKLSPGKKRCKRIKRLLVNFMYL [D13R]	1.71
TRKLSPGKKRCKSIKRLLVNFMYL [D13S]	2.42
TRKLSPGKKRCKTIKRLLVNFMYL [D13T]	3.66
TRKLSPGKKRCKVIKRLLVNFMYL [D13V]	3.74
TRKLSPGKKRCKYIKRLLVNFMYL [D13Y]	1.79
TRKLSPGKKRCKDAKRLLVNFMYL [I14A]	2.13
TRKLSPGKKRCKDCKRLLVNFMYL [I14C]	3.55
TRKLSPGKKRCKDDKRLLVNFMYL [I14D]	1.56
TRKLSPGKKRCKDEKRLLVNFMYL [I14E]	1.32
TRKLSPGKKRCKDFKRLLVNFMYL [I14F]	2.36
TRKLSPGKKRCKDGKRLLVNFMYL [I14G]	1.18
TRKLSPGKKRCKDHKRLLVNFMYL [I14H]	2.23
TRKLSPGKKRCKDKKRLLVNFMYL [I14K]	1.19

Variant	protein stability index
TRKLSPGKKRCKDLKRLLVNFMYL [I14L]	2.27
TRKLSPGKKRCKDMKRLLVNFMYL [I14M]	2.34
TRKLSPGKKRCKDNKRLLVNFMYL [I14N]	1.45
TRKLSPGKKRCKDPKRLLVNFMYL [I14P]	3.95
TRKLSPGKKRCKDQKRLLVNFMYL [I14Q]	1.5
TRKLSPGKKRCKDRKRLLVNFMYL [I14R]	2.19
TRKLSPGKKRCKDSKRLLVNFMYL [I14S]	2.53
TRKLSPGKKRCKDTKRLLVNFMYL [I14T]	2.05
TRKLSPGKKRCKDVKRLLVNFMYL [I14V]	2.2
TRKLSPGKKRCKDWKRLLVNFMYL [I14W]	2.49
TRKLSPGKKRCKDIARLLVNFMYL [K15A]	3.83
TRKLSPGKKRCKDIDRLLVNFMYL [K15D]	1.3
TRKLSPGKKRCKDIERLLVNFMYL [K15E]	3.46
TRKLSPGKKRCKDIGRLLVNFMYL [K15G]	1.85
TRKLSPGKKRCKDILRLLVNFMYL [K15L]	2.08
TRKLSPGKKRCKDIMRLLVNFMYL [K15M]	2.66
TRKLSPGKKRCKDINRLLVNFMYL [K15N]	3.35
TRKLSPGKKRCKDIPRLLVNFMYL [K15P]	2.23
TRKLSPGKKRCKDIQRLLVNFMYL [K15Q]	1.64
TRKLSPGKKRCKDITRLLVNFMYL [K15T]	3.37
TRKLSPGKKRCKDIVRLLVNFMYL [K15V]	4.58
TRKLSPGKKRCKDIWRLLVNFMYL [K15W]	2.09
TRKLSPGKKRCKDIKALLVNFMYL [R16A]	2.73
TRKLSPGKKRCKDIKCLLVNFMYL [R16C]	2.27

Variant	protein stability index
TRKLSPGKKRCKDIKDLLVNFMYL [R16D]	1.6
TRKLSPGKKRCKDIKELLVNFMYL [R16E]	2.42
TRKLSPGKKRCKDIKGLLVNFMYL [R16G]	1.71
TRKLSPGKKRCKDIKILLVNFMYL [R16I]	3.39
TRKLSPGKKRCKDIKKLLVNFMYL [R16K]	2.01
TRKLSPGKKRCKDIKLLLVNFMYL [R16L]	1.66
TRKLSPGKKRCKDIKMLLVNFMYL [R16M]	4.38
TRKLSPGKKRCKDIKNLLVNFMYL [R16N]	2.58
TRKLSPGKKRCKDIKPLLVNFMYL [R16P]	2.24
TRKLSPGKKRCKDIKQLLVNFMYL [R16Q]	1.27
TRKLSPGKKRCKDIKSLLVNFMYL [R16S]	1.36
TRKLSPGKKRCKDIKTLLVNFMYL [R16T]	2.9
TRKLSPGKKRCKDIKWLLVNFMYL [R16W]	3.81
TRKLSPGKKRCKDIKRALVNFMYL [L17A]	1.77
TRKLSPGKKRCKDIKRDLVNFMYL [L17D]	2.24
TRKLSPGKKRCKDIKRELVNFMYL [L17E]	1.55
TRKLSPGKKRCKDIKRFLVNFMYL [L17F]	3.34
TRKLSPGKKRCKDIKRGLVNFMYL [L17G]	3.06
TRKLSPGKKRCKDIKRHLVNFMYL [L17H]	1.3
TRKLSPGKKRCKDIKRKLVNFMYL [L17K]	2.64
TRKLSPGKKRCKDIKRMLVNFMYL [L17M]	2.12
TRKLSPGKKRCKDIKRPLVNFMYL [L17P]	1.5
TRKLSPGKKRCKDIKRQLVNFMYL [L17Q]	1.5
TRKLSPGKKRCKDIKRRLVNFMYL [L17R]	1.84

Variant	protein stability index
TRKLSPGKKRCKDIKRSLVNFMYL [L17S]	2.56
TRKLSPGKKRCKDIKRTLVNFMYL [L17T]	1.9
TRKLSPGKKRCKDIKRVLVNFMYL [L17V]	1
TRKLSPGKKRCKDIKRYLVNFMYL [L17Y]	2.65
TRKLSPGKKRCKDIKRLAVNFMYL [L18A]	1.41
TRKLSPGKKRCKDIKRLCVNFMYL [L18C]	1.52
TRKLSPGKKRCKDIKRLDVNFMYL [L18D]	1.76
TRKLSPGKKRCKDIKRLEVNFMYL [L18E]	2.16
TRKLSPGKKRCKDIKRLFVNFMYL [L18F]	2.21
TRKLSPGKKRCKDIKRLGVNFMYL [L18G]	2.35
TRKLSPGKKRCKDIKRLHVNFMYL [L18H]	1.6
TRKLSPGKKRCKDIKRLKVNFMYL [L18K]	1.54
TRKLSPGKKRCKDIKRLMVNFMYL [L18M]	3.27
TRKLSPGKKRCKDIKRLNVNFMYL [L18N]	1.55
TRKLSPGKKRCKDIKRLPVNFMYL [L18P]	2.48
TRKLSPGKKRCKDIKRLQVNFMYL [L18Q]	1.95
TRKLSPGKKRCKDIKRLRVNFMYL [L18R]	1.68
TRKLSPGKKRCKDIKRLSVNFMYL [L18S]	1.88
TRKLSPGKKRCKDIKRLTVNFMYL [L18T]	1.65
TRKLSPGKKRCKDIKRLVVNFMYL [L18V]	2.52
TRKLSPGKKRCKDIKRLYVNFMYL [L18Y]	2.5
TRKLSPGKKRCKDIKRLLCNFMYL [V19C]	2.31
